Source: PMC3990635

B1: PAR1-Venus [mouse] / RGS2-Luciferase [not stated] (parent)
chain 1: MQSAMFLAVQHDCRPMDKSAGSGHKSEEKREKMKRTLLKDWKTRLSYFLQNSSTPGKPKTGKKSKQQAFIKPSPEEAQLWSEAFDELLASKYGLAAFRAFLKSEFCEENIEFWLACEDFKKTKSPQKLSSKARKIYTDFIEKEAPKEINIDFQTKTLIAQNIQEATSGCFTTAQKRVYSLMENNSYPRFLESEFYQDLCKKPQITTEPHAT
chain 2: SFFLRNPSENTFELVPLGDEEEEEKNESVLLEGRAVYLNISLPPHTPPPPFISEDASGYLTSPWLTLFMPSVYTIVFIVSLPLNVLAIAVFVLRMKVKKPAVVYMLHLAMADVLFVSVLPFKISYYFSGTDWQFGSGMCRFATAAFYGNMYASIMLMTVISIDRFLAVVYPIQSLSWRTLGRANFTCVVIWVMAIMGVVPLLLKEQTTRVPGLNITTCHDVLSENLMQGFYSYYFSAFSAIFFLVPLIVSTVCYTSIIRCLSSSAVANRSKKSRALFLSAAVFCIFIVCFGPTNVLLIVHYLFLSDSPGTEAAYFAYLLCVCVSSVSCCIDPLIYYYASSECQRHLYSILCCKESSDPNSCNSTGQLMPSKMDTCSSHLNNSIYKKLLA

Variants of: B1
Assay: BRET assay in live COS7 cells
Settings: with RGS2-Luciferase; RGS2-Luc 35 ng; PAR1R205A-Ven 1.5 µg; no Gα11; no TFLLR; parent: 0.028; read off a plot

Row | Variant | response
1 | chain 2 R164A | 0.032

Same assay, conditions: with RGS2-Luciferase; RGS2-Luc 35 ng; PAR1R205A-Ven 1.5 µg; no Gα11; with TFLLR; parent: 0.048; read off a plot

Row | Variant | response
2 | chain 2 R164A | 0.037

Same assay, conditions: with RGS2-Luciferase; RGS2-Luc 35 ng; PAR1R205A-Ven 1.5 µg; with 0.5 µg untagged Gα11; no TFLLR; parent: 0.062; read off a plot

Row | Variant | response
3 | chain 2 R164A | 0.047

Same assay, conditions: with RGS2-Luciferase; RGS2-Luc 35 ng; PAR1R205A-Ven 1.5 µg; with 0.5 µg untagged Gα11; with TFLLR; parent: 0.086; read off a plot

Row | Variant | response
4 | chain 2 R164A | 0.048
